Where two headings read alike, the source gives them in different places. Each block holds one binder with its values, some of them ahead of it.
Experiments:
[1] = target: T1, full length human PD-1 on HEK293/hPD-1 cells (human, UniProt Q15116 25-288); assay: FACS, 100 nM mAb
[2] = target: T2, PD-1 chimera: extracellular domain of human PD-1 with trans-membrane and cytoplasmic domains of human CD300a, … (human, UniProt Q9UGN4 181-299, limits assumed); assay: cell-based or functional assay
[3] = target: T1, full length human PD-1 on HEK293/hPD-1 …; assay: FACS, 100 nM mAb, HEK293/hPD-1 cells;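 further: antibodies incubated with cells for 15-30 min on ice, bound antibody detected through a secondary F(ab′)2 by flow cytometry, with parental HEK293 cells tested in parallel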
[4] = target: T1, full length human PD-1 on HEK293/hPD-1 …; assay: FACS dose response, HEK293/hPD-1 cells
[5] = target: T3, recombinant human PD-1 dimer expressed with a C-terminal mouse IgG2a Fc tag (human); assay: competition ELISA: 1.5 nM hPD-1-mFc to coated hPD-L1-hFc
T3 construct: also called hPD-1-mFc

[6] = target: T3, recombinant human PD-1 dimer expressed …; assay: competition ELISA: 100 pM hPD-1-mFc to coated hPD-L2-hFc
[7] = target: T4, dimeric biotinylated human PD-1 protein with a C-terminal human Fc tag (human, biotinylated (sites not given)); assay: competition ELISA: 200 pM biot-hPD-1-hFc to coated hPD-L1-mFc
T4 construct: also called biot-hPD-1-hFc

[8] = target: T3, recombinant human PD-1 dimer expressed …; assay: BLI Octet: 100 nM hPD-1-mFc + 500 nM mAb to captured hPD-L1-hFc
[9] = target: T3, recombinant human PD-1 dimer expressed …; assay: competition ELISA: 1.5 nM hPD-1-mFc to coated hPD-L1-hFc; * below theoretical bottom 7.5E-10 M
[10] = target: T4, dimeric biotinylated human PD-1 protein …; assay: competition ELISA: 200 pM biot-hPD-1-hFc to coated hPD-L1-mFc; * below theoretical bottom 1.0E-10 M
[11] = target: T2, PD-1 chimera: extracellular domain of …; assay: cell-based or functional assay; remark: listed apart in the source
monkey PD-1 with mFc [12] = target: T5, monkey PD-1 with mFc (monkey); assay: SPR, captured mAb, 25 C;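 further: purified anti-PD-1 antibodies tested on Biacore 4000 or T200 instruments, rate constants obtained via 1:1 binding model fit, with KD as kd/ka and half-life as ln2/(60·kd)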
T5 construct: also called monkey PD-1-mFc; monkey PD-1 dimer
T5 chain: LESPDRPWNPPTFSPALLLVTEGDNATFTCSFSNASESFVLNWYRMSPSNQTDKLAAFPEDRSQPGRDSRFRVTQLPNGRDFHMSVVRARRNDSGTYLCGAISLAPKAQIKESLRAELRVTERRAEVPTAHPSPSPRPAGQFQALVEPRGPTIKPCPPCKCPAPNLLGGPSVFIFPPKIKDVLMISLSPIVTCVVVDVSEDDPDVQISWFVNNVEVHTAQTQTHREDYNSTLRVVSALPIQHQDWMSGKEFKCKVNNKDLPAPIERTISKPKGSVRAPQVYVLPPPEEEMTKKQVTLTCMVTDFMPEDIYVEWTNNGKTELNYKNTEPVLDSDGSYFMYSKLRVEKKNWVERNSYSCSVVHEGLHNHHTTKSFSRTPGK

monkey PD-1 with mFc [13] = target: T5, monkey PD-1 with mFc; assay: SPR, captured mAb, 37 C;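 further: Real-time Biacore surface plasmon resonance biosensor readout of PD-1 reagent binding to purified anti-PD-1 monoclonal antibodies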
[14] = target: T1, full length human PD-1 on HEK293/hPD-1 …; assay: FACS dose response, HEK293/hPD-1 cells; remark: listed apart in the source
[15] = target: T6, recombinant human PD-1 expressed with a C-terminal human IgG1 Fc tag (human); assay: SPR Biacore 3000: 100 nM hPD-1.hFc + 500 nM mAb to captured hPD-L1.mFc;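 further: inhibition study with anti-PD-1 mAbs, SPR responses tracked in real time and read at the close of each step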
T6 construct: also called hPD-1-hFc; hPD1-hFc

[16] = target: T7, recombinant human PD-L1 expressed with a C-terminal mouse IgG2a Fc tag (human); assay: SPR Biacore 3000: 500 nM mAb alone (no hPD-1.hFc) over captured hPD-L1.mFc surface, control
T7 construct: also called hPD-L1-mFc; hPD-L1.mFc

[17] = target: T8, human PD-1 dimer (human PD-1-mFc or human PD-1-hFc) (human, UniProt Q15116 25-170); assay: SPR, mAb captured, 25C;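 further: surface plasmon resonance on Biacore, PD-1 flowed over captured anti-PD-1 antibodies, rate constants from a 1:1 binding model fit, KD taken as kd/ka and t½ as ln2/(60·kd)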
T8 construct: also called hPD-1-mFc; hPD1-hFc

[18] = target: T8, human PD-1 dimer (human PD-1-mFc or …); assay: SPR, mAb captured, 37C;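 further: Real-time Biacore biosensor, PD-1 dimer flowed over anti-PD-1 antibody surface, rate constants fitted to a 1:1 model, KD derived as kd/ka and t½ as ln2/(60·kd)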
[19] = target: T9, recombinant cynomolgus monkey PD-1 expressed with a C-terminal myc-myc-hexahistidine tag (cynomolgus monkey (Macaca fascicularis)); assay: SPR, mAb captured, 25C; 25 C
T9 construct: monomeric; also called MfPD-1-MMH
T9 chain: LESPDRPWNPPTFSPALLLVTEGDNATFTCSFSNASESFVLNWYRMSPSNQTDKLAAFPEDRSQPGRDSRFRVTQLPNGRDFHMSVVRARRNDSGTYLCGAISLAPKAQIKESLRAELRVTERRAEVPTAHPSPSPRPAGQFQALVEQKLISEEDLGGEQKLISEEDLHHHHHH

B1: H2aM7798N (antibody, V domains shown)
VH: EVQLLESGGVLVQPGGSLRLSCAASGFTFSNFGMTWVRQAPGKGLEWVSGISGGGRDTYFADSVKGRFTISRDNSKNTLYLQMNSLKGEDTAVYYCVKWGNIYFDYWGQGTLVTVSS
VL: DIQMTQSPSSLSASVGDSITITCRASLSINTFLNWYQQKPGKAPNLLIYAASSLHGGVPSRFSGSGSGTDFTLTIRTLQPEDFATYYCQQSSNTPFTFGPGTVVDFR
notes: human variable regions, mouse IgG2a Fc; also called H2M7798N
ratio of MFI HEK293/hPD-1 to HEK293 parental cells [1]: 78.1
Concentration (M) of Antibody at 150% activation [2]: 7.99e-10 M
Emax mean [%] @ 100 nM [2]: 239%
MFI [3]: 23400 MFI
EC50 [4]: 0.0698 nM
Max Geom. Mean MFI @ 100 nM [4]: 20900 MFI
% blocking at 200 nM antibody [5]: 93%
% blocking at 100 nM antibody [6]: 100%
IC50 [6]: 0.13 nM
% blocking at 50 nM antibody [7]: 100%
% Blocking [8]: 86%
binding of the mixture (nm) [8]: 0.01 nm
IC50 [9]: 0.68 nM
IC50 [10]: 0.073 nM

B4: H2aM7796N (antibody, V domains shown)
VH: QVQLVESGGGVVQPGRSLRLSCAASGFTFSSYGMHWVRQAPGKGLEWVAIIWSDGDSEYNLDSVKGRFTISRDNSKNTLYLQMNSLRVEDSAVYYCARDRDLEDIWGQGTMVTVSS
VL: DIQMTQSPSSLSASVGDRVTITCRASQGIRNDLGWYQQKPGKAPKRLIYAASNLQSGVPSRFSGSGSGTEFTLTISSLQPEDFATYYCLQHNSYPLTFGGGTKVEIK
notes: human variable regions, mouse IgG2a Fc; also called H2M7796N
ratio of MFI HEK293/hPD-1 to HEK293 parental cells [1]: 168
Emax mean [%] @ 100 nM [2]: 121%
MFI [3]: 49800 MFI
EC50 [14]: 4.81 nM
Max Geom. Mean MFI @ 100 nM [14]: 14100 MFI
% blocking at 50 nM antibody [7]: 60%
IC50 [7]: 1.3 nM
% Blocking [8]: 129%
binding of the mixture (nm) [8]: -0.02 nm

Now from value to binder:

Concentration (M) of Antibody at 150% activation [2]: 1.54e-09 M
Emax mean [%] @ 100 nM [2]: 202%
Emax mean [%] @ 100 nM [11]: 343%
100 nM Monkey PD-1-mFc Bound (RU) (monkey PD-1 with mFc [12]): 93 RU
Kd (monkey PD-1 with mFc [12]): 0.137 nM
koff (monkey PD-1 with mFc [12]): 6.14e-05 s⁻¹
kon (monkey PD-1 with mFc [12]): 449000 M⁻¹ s⁻¹
t1/2 (monkey PD-1 with mFc [12]): 188 min
100 nM Monkey PD-1-mFc Bound (RU) (monkey PD-1 with mFc [13]): 88 RU
Kd (monkey PD-1 with mFc [13]): 0.202 nM
koff (monkey PD-1 with mFc [13]): 0.000127 s⁻¹
kon (monkey PD-1 with mFc [13]): 630000 M⁻¹ s⁻¹
t1/2 (monkey PD-1 with mFc [13]): 91 min
EC50 [14]: 0.509 nM
Max Geom. Mean MFI @ 100 nM [14]: 20300 MFI
% Blocking [15]: 106%
binding of the mixture (RU) [15]: -6 RU
500 nM of anti-PD-1 monoclonal antibody (RU) [16]: -6 RU
B2: H4H7798N (antibody, human IgG4 S228P, kappa, V domains shown)
VH: EVQLLESGGVLVQPGGSLRLSCAASGFTFSNFGMTWVRQAPGKGLEWVSGISGGGRDTYFADSVKGRFTISRDNSKNTLYLQMNSLKGEDTAVYYCVKWGNIYFDYWGQGTLVTVSS
VL: DIQMTQSPSSLSASVGDSITITCRASLSINTFLNWYQQKPGKAPNLLIYAASSLHGGVPSRFSGSGSGTDFTLTIRTLQPEDFATYYCQQSSNTPFTFGPGTVVDFRR
notes: human IgG4 Fc

Kd [17]: 1.75 nM
koff [17]: 0.000177 s⁻¹
kon [17]: 101000 M⁻¹ s⁻¹
t½ [17]: 65 min
Kd [18]: 9.07 nM
koff [18]: 0.00211 s⁻¹
kon [18]: 233000 M⁻¹ s⁻¹
t½ [18]: 5 min
Kd [19]: 551 nM
koff [19]: 0.0191 s⁻¹
kon [19]: 34600 M⁻¹ s⁻¹
t½ [19]: 0.6 min
B3: H4H9057P2 (antibody, human IgG4, V domains shown)
VH: EVQLVESGGGLVQSGRSLRLSCAASGFTFDDYAMHWVRQPPGKGLEWVSGINWNRGRTGYADSVKGRFTISRDNAKNSLYLQMNDLRVEDTALYYCAKAEQWLDEGYFDYWGQGTLVTVSS
VL: not shown
notes: Fully human; H4H prefix (human IgG4 Fc)

Reference: patent US20150203579A1 (Regeneron, published 2015)
